Values joined by “and” are separate entries in the source; they are usually repeats but may differ in a detail not shown here. Equal values may be shown once.

First the molecules themselves.
T1: cytosolic domain of VanSA (enterococci, UniProt Q06240 98-384)
T1 construct: two residues at the N-terminus contributed by the vector pETCH; VanS of type-A vancomycin resistance in enterococci, Uniprot Q06240, residues 98-384, beginning at K98 just after the second predicted transmembrane helix; also called cVanSA; Cytosolic VanSA; source: E. coli BL21(DE3), purified (IMAC, HiTrap Q, S-300)
T1 sequence: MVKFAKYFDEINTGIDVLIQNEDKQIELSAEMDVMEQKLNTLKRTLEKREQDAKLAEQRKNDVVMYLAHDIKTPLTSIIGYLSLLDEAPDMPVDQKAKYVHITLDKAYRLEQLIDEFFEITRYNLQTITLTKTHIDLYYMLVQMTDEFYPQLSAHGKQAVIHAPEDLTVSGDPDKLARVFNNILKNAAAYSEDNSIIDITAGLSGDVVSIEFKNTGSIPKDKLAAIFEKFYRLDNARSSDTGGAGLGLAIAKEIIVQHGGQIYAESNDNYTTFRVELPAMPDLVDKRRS

T2: Phospho-cytosolic VanSA (enterococci, UniProt Q06240 98-384, phospho-histidine at the conserved histidine (autophosphorylated; not expected to be fully phosphorylated))
T2 construct: two residues at the N-terminus contributed by the vector pETCH; VanS of type-A vancomycin resistance in enterococci, Uniprot Q06240, residues 98-384, beginning at K98; also called autophosphorylated cVanSA; phospho-cVanSA
T2 sequence: T1 sequence

B1: fluorescently-labeled VanRA (natural protein, enterococci)
chain: CMSDKILIVDDEHEIADLVELYLKNENYTVFKYYTAKEALECIDKSEIDLAILDIMLPGTSGLTICQKIRDKHTYPIIMLTGKDTEVDKITGLTIGADDYITKPFRPLELIARVKAQLRRYKKFSGVKEQNENVIVHSGLVINVNTHECYLNEKQLSLTPTEFSILRILCENKGNVVSSELLFHEIWGDEYFSKSNNTITVHIRHLREKMNDTIDNPKYIKTVWGVGYKIEK
modifications: fluorescein maleimide on the cysteine introduced at the N-terminus
notes: additional cysteine at the N-terminus, introduced by site-directed mutagenesis instead of the glycine of the wild-type construct; VanR response regulator of type-A vancomycin resistance in enterococci, Uniprot Q06239; Expression and purification of the cysteine mutant are not described; After labelling it was passed over Sephacryl S-100 HR; also called fluorescein-labeled VanRA; …
B2: full-length VanSA (enzyme)
chain: MVIKLKNKKNDYSKLERKLYMYIVAIVVVAIVFVLYIRSMIRGKLGDWILSILENKYDLNHLDAMKLYQYSIRNNIDIFIYVAIVISILILCRVMLSKFAKYFDEINTGIDVLIQNEDKQIELSAEMDVMEQKLNTLKRTLEKREQDAKLAEQRKNDVVMYLAHDIKTPLTSIIGYLSLLDEAPDMPVDQKAKYVHITLDKAYRLEQLIDEFFEITRYNLQTITLTKTHIDLYYMLVQMTDEFYPQLSAHGKQAVIHAPEDLTVSGDPDKLARVFNNILKNAAAYSEDNSIIDITAGLSGDVVSIEFKNTGSIPKDKLAAIFEKFYRLDNARSSDTGGAGLGLAIAKEIIVQHGGQIYAESNDNYTTFRVELPAMPDLVDKRRS
notes: VanS sensor histidine kinase of type-A vancomycin resistance in enterococci, Uniprot Q06240, full length; the construct has 392 amino acids including the C-terminal PG-6xHis tag; Membrane protein; kept in 10 mM LDAO for SEC and storage and in 9 mM C12E8 for the SPR injections; source: E. coli BL21(DE3), purified from the membrane fraction (DDM extraction, IMAC, Sephacryl S-300 in LDAO)
B3: 1D4-tagged VanRA (natural protein)
chain: MSDKILIVDDEHEIADLVELYLKNENYTVFKYYTAKEALECIDKSEIDLAILDIMLPGTSGLTICQKIRDKHTYPIIMLTGKDTEVDKITGLTIGADDYITKPFRPLELIARVKAQLRRYKKFSGVKEQNENVIVHSGLVINVNTHECYLNEKQLSLTPTEFSILRILCENKGNVVSSELLFHEIWGDEYFSKSNNTITVHIRHLREKMNDTIDNPKYIKTVWGVGYKIEK
notes: VanR response regulator of type-A vancomycin resistance in enterococci, Uniprot Q06239; the 1D4 tag and linker add 13 residues to the wild-type VanRA construct; Expression and purification of this tagged construct are not described; also called tagged VanRA construct; immobilized VanRA

The target in data set [1] is T1, cytosolic domain of VanSA. Kind of data set: fluorescence polarisation; fluorescence anisotropy; cVanSA titrated into 40 nM fluorescein-labeled VanRA; 50 mM Tris pH 7.8, 100 mM NaCl, 5 mM MgCl2, 0.05% Tween-20; room temperature. The following applies: both partners purified. In general terms: In fluorescence polarisation assays a small probe gives low polarisation when free and higher when bound to something large.

Data set [2] deals with the molecule itself. The data set can be described thus: SEC; Sephacryl S-300 in 50 mM Tris pH 7.8, 500 mM NaCl, 5 mM MgCl2, 10 mM LDAO; elution compared with the 80 kDa apotransferrin standard. For orientation: In gel filtration, larger molecules generally elute earlier.
Data set [3] addresses T1, cytosolic domain of VanSA. Kind of data set: SPR; 1D4-tagged VanRA captured on Rho1D4 antibody amine-coupled to a GLC chip (ProteOn XPR36); cytosolic histidine kinase as analyte; 25°C; 50 mM BIS-TRIS pH 6.0, 150 mM NaCl, 10 mM MgCl2, 0.005% Tween 20; one-site model fitted to equilibrium responses; concentrations for dimers. The note with it: both partners purified. For orientation: SPR reads the build-up and loss of mass on a sensor chip optically.

Another data set concerns the target T2, Phospho-cytosolic VanSA. The description is as above. The following applies: both partners purified.
The data set “full-length VanSA” concerns the target B2. Kind of data set: SPR; 1D4-tagged VanRA captured on Rho1D4 antibody on a GLC chip; full-length VanSA as analyte in running buffer + 9 mM C12E8; 25°C; 50 mM BIS-TRIS pH 6.0, 150 mM NaCl, 10 mM MgCl2, 0.005% Tween 20; one-site model fitted to equilibrium responses; concentrations for dimers. The following applies: both partners purified.

One may read the Kd as a measure of binding affinity in units of concentration. As for B1, in data set [1], the dissociation constant (Kd) was 200 nM and 100 to 1000 nM.

As for B2, in data set [2], the binding result is on record as “binds”.

With B3, the Kd in data set [3] was 6800 ± 1400 nM; with Phospho-cytosolic VanSA it was 2500 ± 800 nM; with full-length VanSA it was 1900 ± 700 nM.

These data come from article PMC6345502, “Vancomycin does not affect the enzymatic activities of purified VanSA” (PLoS ONE, 2019).
